Data: patent US20250346679A1

Target: mouse CD137, cell-surface (mouse) (UniProt P20334)
Test: cell-based or functional assay

mouse CD137, cell-surface (mouse), sequence (P20334 24-256): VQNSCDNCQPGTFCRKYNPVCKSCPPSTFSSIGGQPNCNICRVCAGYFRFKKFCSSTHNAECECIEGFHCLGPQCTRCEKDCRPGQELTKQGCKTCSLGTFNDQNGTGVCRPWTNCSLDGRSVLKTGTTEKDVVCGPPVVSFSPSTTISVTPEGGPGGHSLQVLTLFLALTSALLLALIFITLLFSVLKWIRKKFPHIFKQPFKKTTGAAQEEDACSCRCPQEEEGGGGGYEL

Q: For G1-AA/Lob12.3 (antibody), which +XL EC50 (nM), mouse CD137 DO11.10 T cell activation assay is on record?
A: 2.26 nM

Q: And the +XL Emax (IL-2 pg/ml), mouse CD137 DO11.10 T cell activation assay?
A: 21300 pg/mL

Q: What about the EC50 (nM), mIFN-γ release, OT-1 CD8+ T cell activation assay, with anti-hCH2 of the same substance?
A: 0.36 nM

Q: What about the Emax (pg/ml), mIFN-γ release, OT-1 CD8+ T cell activation assay, with anti-hCH2 of the same substance?
A: 17800 pg/mL
